Reference: article PMC6555819, “Comprehensive study of nuclear receptor DNA binding provides a revised framework for understanding receptor specificity”

B1: NRC3_random_hg19_406_o1 (dsDNA)
DNA 1: GCGAAGAACCTCCAAACTGTTCTCCATGGTAGTTGTGCGATTGACAGCGTAGAATGAAGG
DNA 2: CCTTCATTCTACGCTGTCAATCGCACAACTACCATGGAGAACAGTTTGGAGGTTCTTCGC
B2: NRC3_wobSeed13_DR0_G21C_o1 (dsDNA)
DNA 1: GCCGTCCAAGGTCAAGGTCACTGAAAGAGACTCGAAGCGATTGACAGCGTAGAATGAAGG
DNA 2: CCTTCATTCTACGCTGTCAATCGCTTCGAGTCTCTTTCAGTGACCTTGACCTTGGACGGC
B3: NRC3_random_hg19_397_o1 (dsDNA)
DNA 1: GCGGTGTCGTGTGCCTGTGATCCCAGCTACGCAGGCGCGATTGACAGCGTAGAATGAAGG
DNA 2: CCTTCATTCTACGCTGTCAATCGCGCCTGCGTAGCTGGGATCACAGGCACACGACACCGC
B4: NRC3_random_hg19_10_o1 (dsDNA)
DNA 1: GCAGCCTCCTGTTGGGTGGTCTGGTCCACCTCCTCAGCGATTGACAGCGTAGAATGAAGG
DNA 2: CCTTCATTCTACGCTGTCAATCGCTGAGGAGGTGGACCAGACCACCCAACAGGAGGCTGC
B5: NRC3_random_hg19_173_o1 (dsDNA)
DNA 1: GCATCCACCACCATGCAGAGGCAAGAATGGTCAGGCGCGATTGACAGCGTAGAATGAAGG
DNA 2: CCTTCATTCTACGCTGTCAATCGCGCCTGACCATTCTTGCCTCTGCATGGTGGTGGATGC
B6: NRC3_wobSeed133_DR5_T19A_o1 (dsDNA)
DNA 1: GCCGTCCAAGGTCAATGCAAGGTCAGTGAAAGCATTGCGATTGACAGCGTAGAATGAAGG
DNA 2: CCTTCATTCTACGCTGTCAATCGCAATGCTTTCACTGACCTTGCATTGACCTTGGACGGC
B7: NRC3_random_hg19_121_o1 (dsDNA)
DNA 1: GCGCAGTAGGCACAGGGACTGTGTACAGATCTACACGCGATTGACAGCGTAGAATGAAGG
DNA 2: CCTTCATTCTACGCTGTCAATCGCGTGTAGATCTGTACACAGTCCCTGTGCCTACTGCGC
B8: NRC3_random_hg19_16_o1 (dsDNA)
DNA 1: GCGTTGTATCGTGTTATGTATGAGAGTCAGGATCTTGCGATTGACAGCGTAGAATGAAGG
DNA 2: CCTTCATTCTACGCTGTCAATCGCAAGATCCTGACTCTCATACATAACACGATACAACGC
B9: NRC3_random_hg19_371_o1 (dsDNA)
DNA 1: GCTTAAGGATGGACCATTGGCTAAAGCAATGTCAAAGCGATTGACAGCGTAGAATGAAGG
DNA 2: CCTTCATTCTACGCTGTCAATCGCTTTGACATTGCTTTAGCCAATGGTCCATCCTTAAGC
B10: NRC3_wobSeed109_DR4_G25A_o1 (dsDNA)
DNA 1: GCCGTCCAAGGTCATAGGAGGTCAATGAAGACAGATGCGATTGACAGCGTAGAATGAAGG
DNA 2: CCTTCATTCTACGCTGTCAATCGCATCTGTCTTCATTGACCTCCTATGACCTTGGACGGC
B11: NRC3_wobSeed25_DR1_C26A_o1 (dsDNA)
DNA 1: GCCAAACTAGGTCAAAGGTCAAAGTAGAGCCAACCAGCGATTGACAGCGTAGAATGAAGG
DNA 2: CCTTCATTCTACGCTGTCAATCGCTGGTTGGCTCTACTTTGACCTTTGACCTAGTTTGGC
B12: NRC3_random_hg19_113_o1 (dsDNA)
DNA 1: GCGAGATTCCAGATGAGAACTGCTCAGCCAAACTCTGCGATTGACAGCGTAGAATGAAGG
DNA 2: CCTTCATTCTACGCTGTCAATCGCAGAGTTTGGCTGAGCAGTTCTCATCTGGAATCTCGC
B13: NRC3_wobSeed102_DR4_T18G_o1 (dsDNA)
DNA 1: GCCCTAGCAGGCCAATCGGGGTCACTCAAGGCTTGAGCGATTGACAGCGTAGAATGAAGG
DNA 2: CCTTCATTCTACGCTGTCAATCGCTCAAGCCTTGAGTGACCCCGATTGGCCTGCTAGGGC
B14: NRC3_wobSeed37_DR1_T23G_o1 (dsDNA)
DNA 1: GCCGTCCAAGGTCAAAGGTCAGGGAAGAGATGACGGGCGATTGACAGCGTAGAATGAAGG
DNA 2: CCTTCATTCTACGCTGTCAATCGCCCGTCATCTCTTCCCTGACCTTTGACCTTGGACGGC
B15: NRC3_wobSeed141_DR5_T11G_o1 (dsDNA)
DNA 1: GCAGTCAAAGGTCAGGACGAGGTAACGTAAAGCACGGCGATTGACAGCGTAGAATGAAGG
DNA 2: CCTTCATTCTACGCTGTCAATCGCCGTGCTTTACGTTACCTCGTCCTGACCTTTGACTGC
B16: NRC3_random_hg19_180_o1 (dsDNA)
DNA 1: GCCAAGATAACCAGCTTATCTATCAGTTGGAGCAGAGCGATTGACAGCGTAGAATGAAGG
DNA 2: CCTTCATTCTACGCTGTCAATCGCTCTGCTCCAACTGATAGATAAGCTGGTTATCTTGGC
B17: NRC3_random_hg19_285_o1 (dsDNA)
DNA 1: GCTTACTCTGTTGCACTTTGGAAGAAACAAATGTAAGCGATTGACAGCGTAGAATGAAGG
DNA 2: CCTTCATTCTACGCTGTCAATCGCTTACATTTGTTTCTTCCAAAGTGCAACAGAGTAAGC
B18: NRC3_wobSeed106_DR4_G14A_o1 (dsDNA)
DNA 1: GCCTCGAAAGGTCAGTTGAGGTGAGTATACGGATAAGCGATTGACAGCGTAGAATGAAGG
DNA 2: CCTTCATTCTACGCTGTCAATCGCTTATCCGTATACTCACCTCAACTGACCTTTCGAGGC
B19: NRC3_random_hg19_423_o1 (dsDNA)
DNA 1: GCATCAAGTGATCCTCCCACCTCAGCCTTCCAAGTCGCGATTGACAGCGTAGAATGAAGG
DNA 2: CCTTCATTCTACGCTGTCAATCGCGACTTGGAAGGCTGAGGTGGGAGGATCACTTGATGC
B20: NRC3_random_hg19_222_o1 (dsDNA)
DNA 1: GCGAAGCATTCTAAGAAACTTCTTCGTGATGTGTGTGCGATTGACAGCGTAGAATGAAGG
DNA 2: CCTTCATTCTACGCTGTCAATCGCACACACATCACGAAGAAGTTTCTTAGAATGCTTCGC
B21: NRC3_wobSeed120_DR4_G20A_o1 (dsDNA)
DNA 1: GCCCGAGTAGGTTACGAGGAGGCATTCAGTGCGAATGCGATTGACAGCGTAGAATGAAGG
DNA 2: CCTTCATTCTACGCTGTCAATCGCATTCGCACTGAATGCCTCCTCGTAACCTACTCGGGC
B22: NRC3_random_hg19_74_o1 (dsDNA)
DNA 1: GCAGAACAGCTGAGTGGCTCAAGACCGCAGAGGAACGCGATTGACAGCGTAGAATGAAGG
DNA 2: CCTTCATTCTACGCTGTCAATCGCGTTCCTCTGCGGTCTTGAGCCACTCAGCTGTTCTGC
B23: NRC3_wobSeed101_DR4_C18A_o1 (dsDNA)
DNA 1: GCCCTTACGGGTCACTCAAGGTTATAGCATCGGAGTGCGATTGACAGCGTAGAATGAAGG
DNA 2: CCTTCATTCTACGCTGTCAATCGCACTCCGATGCTATAACCTTGAGTGACCCGTAAGGGC

These binders were tested against RXRa (Homo sapiens, UniProt P19793) (assay: no ligand; PBM; 180 nM; PBS pH 7.4, 2% milk, 0.02% Triton X-100, 1 mM DTT, BSA, 0.4 mg/ml salmon testes DNA). Details: tags: His cleaved; chain copies: 2; label: surface-attached array probe.
Chain of RXRa (P19793 whole entry): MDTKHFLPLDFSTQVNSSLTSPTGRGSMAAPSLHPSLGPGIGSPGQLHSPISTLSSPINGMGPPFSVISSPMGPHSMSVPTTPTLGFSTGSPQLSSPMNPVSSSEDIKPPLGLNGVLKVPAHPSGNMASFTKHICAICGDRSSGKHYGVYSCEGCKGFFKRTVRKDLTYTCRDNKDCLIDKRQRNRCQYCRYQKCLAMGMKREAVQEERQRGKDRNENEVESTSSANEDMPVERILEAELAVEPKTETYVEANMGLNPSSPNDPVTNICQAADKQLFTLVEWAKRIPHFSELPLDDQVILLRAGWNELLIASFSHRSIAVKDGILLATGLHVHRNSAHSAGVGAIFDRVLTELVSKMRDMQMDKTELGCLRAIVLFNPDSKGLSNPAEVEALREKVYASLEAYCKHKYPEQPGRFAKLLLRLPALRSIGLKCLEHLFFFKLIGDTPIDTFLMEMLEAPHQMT

Row | Binder | binding signal
1 | B1 | -0.04 PBM z-score against 500 random probes
2 | B2 | 7.81 PBM z-score against 500 random probes
3 | B3 | -0.17 PBM z-score against 500 random probes
4 | B4 | -1.64 PBM z-score against 500 random probes
5 | B5 | 0.16 PBM z-score against 500 random probes

What follows are binders tested against THRa:RXRa (Homo sapiens, UniProt P10827;P19793 full;full) (assay: no ligand; PBM; 90 nM : 90 nM RXRa; PBS pH 7.4, 2% milk, 0.02% Triton X-100, 1 mM DTT, BSA, 0.4 mg/ml salmon testes DNA). Details: tags: His kept;His cleaved; copies: 1;1; label: surface-attached array probe.
Chain of THRa:RXRa (P10827 other isoform, or with tags, fused parts or gaps, chain 1 of 2): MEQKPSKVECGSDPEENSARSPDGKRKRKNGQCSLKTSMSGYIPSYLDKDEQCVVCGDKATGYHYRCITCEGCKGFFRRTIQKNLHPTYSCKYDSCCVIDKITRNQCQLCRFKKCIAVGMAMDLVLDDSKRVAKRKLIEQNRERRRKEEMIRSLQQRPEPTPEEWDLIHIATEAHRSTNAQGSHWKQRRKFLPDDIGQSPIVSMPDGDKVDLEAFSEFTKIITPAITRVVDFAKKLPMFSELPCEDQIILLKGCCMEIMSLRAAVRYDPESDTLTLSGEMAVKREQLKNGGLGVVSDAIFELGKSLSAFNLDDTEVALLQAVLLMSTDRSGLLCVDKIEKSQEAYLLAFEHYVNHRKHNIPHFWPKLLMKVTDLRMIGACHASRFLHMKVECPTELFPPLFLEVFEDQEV
Chain of THRa:RXRa (P19793 whole entry, chain 2 of 2): as the sequence (P19793 whole entry) above

Row | Binder | binding signal
6 | B6 | 5 PBM z-score against 500 random probes
7 | B7 | -2.89 PBM z-score against 500 random probes
8 | B8 | 0.16 PBM z-score against 500 random probes
9 | B1 | -0.25 PBM z-score against 500 random probes
10 | B9 | -0.29 PBM z-score against 500 random probes
11 | B2 | 4.85 PBM z-score against 500 random probes
12 | B10 | 5.65 PBM z-score against 500 random probes
13 | B11 | 5.12 PBM z-score against 500 random probes
14 | B12 | -0.47 PBM z-score against 500 random probes
15 | B3 | -0.32 PBM z-score against 500 random probes
16 | B13 | 4.94 PBM z-score against 500 random probes
17 | B14 | 5.23 PBM z-score against 500 random probes
18 | B15 | 4.79 PBM z-score against 500 random probes
19 | B16 | -0.68 PBM z-score against 500 random probes
20 | B17 | 0.3 PBM z-score against 500 random probes
21 | B18 | 5.33 PBM z-score against 500 random probes
22 | B4 | -1.74 PBM z-score against 500 random probes
23 | B19 | 0.07 PBM z-score against 500 random probes
24 | B20 | -0.74 PBM z-score against 500 random probes
25 | B5 | 0.01 PBM z-score against 500 random probes
26 | B21 | 0.17 PBM z-score against 500 random probes
27 | B22 | -0.75 PBM z-score against 500 random probes
28 | B23 | 5.41 PBM z-score against 500 random probes

These binders were tested against RARb:RXRa (Homo sapiens, UniProt P10826;P19793 full;full) (assay: no ligand; PBM; 270 nM : 90 nM RXRa; PBS pH 7.4, 2% milk, 0.02% Triton X-100, 1 mM DTT, BSA, 0.4 mg/ml salmon testes DNA). Details: tags: His kept;His cleaved; copies: 1;1; label: surface-attached array probe.
How it was run: (§1)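 Custom Agilent 4×180K protein-binding microarrays carried double-stranded probes, each with a 34-nt variable region. These regions held direct-repeat seeds, single-nucleotide variants, half-site ablations and random human genomic background sequences. Ligand-free nuclear receptor dimers were incubated on the arrays for 1 h, antibodies against each partner (one per run) detected binding, and scanned fluorescence was regression-normalized. Binding z-scores take the random background probes as reference.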

Chain of RARb:RXRa (P10826 whole entry, chain 1 of 2): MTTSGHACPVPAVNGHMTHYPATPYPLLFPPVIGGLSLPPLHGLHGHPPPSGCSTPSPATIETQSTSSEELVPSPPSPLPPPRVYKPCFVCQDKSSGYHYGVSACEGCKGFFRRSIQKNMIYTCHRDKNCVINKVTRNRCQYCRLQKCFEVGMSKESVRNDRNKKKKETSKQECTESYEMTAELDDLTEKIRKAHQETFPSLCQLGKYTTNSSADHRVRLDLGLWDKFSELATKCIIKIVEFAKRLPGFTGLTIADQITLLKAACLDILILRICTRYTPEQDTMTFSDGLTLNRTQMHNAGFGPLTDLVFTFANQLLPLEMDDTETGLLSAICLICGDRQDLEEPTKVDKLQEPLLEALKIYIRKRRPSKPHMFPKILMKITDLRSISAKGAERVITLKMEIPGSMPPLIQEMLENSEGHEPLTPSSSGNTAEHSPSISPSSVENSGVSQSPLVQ
Chain of RARb:RXRa (P19793 whole entry, chain 2 of 2): as the sequence (P19793 whole entry) above

Row | Binder | binding signal
29 | B6 | 5.87 PBM z-score against 500 random probes
30 | B7 | -1.18 PBM z-score against 500 random probes
31 | B2 | 5.97 PBM z-score against 500 random probes
32 | B10 | 5.71 PBM z-score against 500 random probes
33 | B11 | 6.19 PBM z-score against 500 random probes
34 | B12 | -0.57 PBM z-score against 500 random probes
35 | B3 | 0.07 PBM z-score against 500 random probes
36 | B13 | 3.05 PBM z-score against 500 random probes
37 | B14 | 6.26 PBM z-score against 500 random probes
38 | B15 | 5.96 PBM z-score against 500 random probes
39 | B17 | 0.15 PBM z-score against 500 random probes
40 | B18 | 5.79 PBM z-score against 500 random probes
41 | B4 | -0.72 PBM z-score against 500 random probes
42 | B19 | 0.02 PBM z-score against 500 random probes
43 | B20 | -1.15 PBM z-score against 500 random probes
44 | B22 | -1.89 PBM z-score against 500 random probes

Each binder was assayed against VDR:RXRa (Homo sapiens, UniProt P11473;P19793 full;full) in the same assay as above. Details: tags: His kept;His cleaved; copies: 1;1; label: surface-attached array probe.
How it was run: as §1

Chain of VDR:RXRa (P11473 whole entry, chain 1 of 2): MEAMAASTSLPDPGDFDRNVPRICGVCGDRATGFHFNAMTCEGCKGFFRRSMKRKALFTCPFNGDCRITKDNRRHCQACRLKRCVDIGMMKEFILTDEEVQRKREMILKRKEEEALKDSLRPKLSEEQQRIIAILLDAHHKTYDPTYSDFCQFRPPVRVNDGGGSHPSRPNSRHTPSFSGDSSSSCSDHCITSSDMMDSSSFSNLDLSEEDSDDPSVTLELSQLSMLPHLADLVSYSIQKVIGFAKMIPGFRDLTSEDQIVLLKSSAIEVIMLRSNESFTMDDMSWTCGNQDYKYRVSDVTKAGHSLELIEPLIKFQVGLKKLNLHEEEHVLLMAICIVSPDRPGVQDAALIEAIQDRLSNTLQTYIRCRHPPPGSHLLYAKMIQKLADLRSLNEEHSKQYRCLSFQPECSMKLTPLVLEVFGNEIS
Chain of VDR:RXRa (P19793 whole entry, chain 2 of 2): as the sequence (P19793 whole entry) above

Row | Binder | binding signal
45 | B3 | -0.31 PBM z-score against 500 random probes
46 | B21 | 0.09 PBM z-score against 500 random probes

The binders below were run against PPARa:RXRa (Homo sapiens, UniProt Q07869;P19793 full;full) in the same assay as above. Details: tags: GST kept;His cleaved; copies: 1;1; label: surface-attached array probe.
How it was run: as §1

Chain of PPARa:RXRa (Q07869 whole entry, chain 1 of 2): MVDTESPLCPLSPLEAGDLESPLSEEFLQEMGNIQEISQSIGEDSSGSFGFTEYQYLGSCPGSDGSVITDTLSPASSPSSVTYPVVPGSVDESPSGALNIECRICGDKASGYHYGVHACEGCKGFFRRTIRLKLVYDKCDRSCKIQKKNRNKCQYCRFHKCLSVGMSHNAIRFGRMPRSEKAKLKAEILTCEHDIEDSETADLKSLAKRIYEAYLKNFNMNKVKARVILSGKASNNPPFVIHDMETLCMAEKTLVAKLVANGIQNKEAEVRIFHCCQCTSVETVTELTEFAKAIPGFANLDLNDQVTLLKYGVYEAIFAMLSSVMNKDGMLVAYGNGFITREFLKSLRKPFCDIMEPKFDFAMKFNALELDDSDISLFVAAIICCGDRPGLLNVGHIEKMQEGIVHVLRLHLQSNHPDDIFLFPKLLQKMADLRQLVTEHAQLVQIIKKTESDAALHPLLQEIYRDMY
Chain of PPARa:RXRa (P19793 whole entry, chain 2 of 2): as the sequence (P19793 whole entry) above

Row | Binder | binding signal
47 | B2 | 6.7 PBM z-score against 500 random probes
48 | B10 | 6.49 PBM z-score against 500 random probes
49 | B12 | -0.69 PBM z-score against 500 random probes
50 | B14 | 7.45 PBM z-score against 500 random probes

These binders were tested against LXRb:RXRa (Homo sapiens, UniProt P55055;P19793 full;full) in the same assay as above. Details: tags: His kept;His cleaved; copies: 1;1; label: surface-attached array probe.
How it was run: as §1

Chain of LXRb:RXRa (P55055 whole entry, chain 1 of 2): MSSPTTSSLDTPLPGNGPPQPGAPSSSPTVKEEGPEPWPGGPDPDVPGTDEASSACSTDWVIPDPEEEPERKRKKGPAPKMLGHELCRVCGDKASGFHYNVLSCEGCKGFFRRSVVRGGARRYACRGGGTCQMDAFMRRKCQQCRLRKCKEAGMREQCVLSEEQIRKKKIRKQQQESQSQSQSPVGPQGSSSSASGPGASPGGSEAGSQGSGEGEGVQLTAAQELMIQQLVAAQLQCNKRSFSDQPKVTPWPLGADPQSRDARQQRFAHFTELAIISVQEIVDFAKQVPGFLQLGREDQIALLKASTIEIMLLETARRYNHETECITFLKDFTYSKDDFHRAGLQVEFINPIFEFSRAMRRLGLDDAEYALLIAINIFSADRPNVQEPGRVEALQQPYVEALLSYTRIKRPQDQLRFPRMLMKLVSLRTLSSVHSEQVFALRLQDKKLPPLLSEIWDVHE
Chain of LXRb:RXRa (P19793 whole entry, chain 2 of 2): as the sequence (P19793 whole entry) above

Row | Binder | binding signal
51 | B8 | 0.41 PBM z-score against 500 random probes
52 | B9 | -0.56 PBM z-score against 500 random probes
53 | B10 | 7.06 PBM z-score against 500 random probes
54 | B16 | -0.9 PBM z-score against 500 random probes
55 | B23 | 6.18 PBM z-score against 500 random probes

Each binder was assayed against FXR:RXRa (Homo sapiens, UniProt Q96RI1;P19793 full;full) in the same assay as above. Details: tags: His kept;His cleaved; copies: 1;1; label: surface-attached array probe.
How it was run: as §1

Chain of FXR:RXRa (Q96RI1 whole entry, chain 1 of 2): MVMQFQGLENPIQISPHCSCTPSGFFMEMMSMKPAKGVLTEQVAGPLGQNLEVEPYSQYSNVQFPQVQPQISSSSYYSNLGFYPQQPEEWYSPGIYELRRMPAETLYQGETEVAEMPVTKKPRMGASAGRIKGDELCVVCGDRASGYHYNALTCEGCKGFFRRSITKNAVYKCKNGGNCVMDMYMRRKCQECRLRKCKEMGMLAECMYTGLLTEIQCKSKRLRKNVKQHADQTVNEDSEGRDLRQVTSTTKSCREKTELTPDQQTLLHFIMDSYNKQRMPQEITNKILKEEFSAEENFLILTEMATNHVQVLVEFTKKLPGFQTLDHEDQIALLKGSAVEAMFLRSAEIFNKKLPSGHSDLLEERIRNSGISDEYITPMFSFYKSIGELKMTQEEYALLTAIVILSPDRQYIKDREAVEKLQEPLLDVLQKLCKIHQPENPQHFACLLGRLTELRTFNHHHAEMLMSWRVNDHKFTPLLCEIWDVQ
Chain of FXR:RXRa (P19793 whole entry, chain 2 of 2): as the sequence (P19793 whole entry) above

Row | Binder | binding signal
56 | B1 | -0.19 PBM z-score against 500 random probes
57 | B4 | -0.8 PBM z-score against 500 random probes

Each binder was assayed against RARg:RXRa (Homo sapiens, UniProt P13631;P19793 full;full) in the same assay as above. Details: tags: His kept;His cleaved; copies: 1;1; label: surface-attached array probe.
How it was run: as §1

Chain of RARg:RXRa (P13631 whole entry, chain 1 of 2): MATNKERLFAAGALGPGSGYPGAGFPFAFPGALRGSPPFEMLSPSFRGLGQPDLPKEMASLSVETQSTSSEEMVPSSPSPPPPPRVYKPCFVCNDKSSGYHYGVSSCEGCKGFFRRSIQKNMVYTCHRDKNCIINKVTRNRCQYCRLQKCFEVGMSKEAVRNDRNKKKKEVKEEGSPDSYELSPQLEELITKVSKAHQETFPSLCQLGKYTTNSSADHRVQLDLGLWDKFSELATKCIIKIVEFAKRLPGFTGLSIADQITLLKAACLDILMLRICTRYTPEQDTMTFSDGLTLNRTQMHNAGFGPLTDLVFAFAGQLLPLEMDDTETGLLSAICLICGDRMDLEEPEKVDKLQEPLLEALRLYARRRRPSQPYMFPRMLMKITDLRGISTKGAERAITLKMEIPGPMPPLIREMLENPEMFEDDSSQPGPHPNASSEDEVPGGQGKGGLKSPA
Chain of RARg:RXRa (P19793 whole entry, chain 2 of 2): as the sequence (P19793 whole entry) above

Row | Binder | binding signal
58 | B6 | 8.21 PBM z-score against 500 random probes
59 | B1 | -0.45 PBM z-score against 500 random probes
60 | B2 | 7.34 PBM z-score against 500 random probes
61 | B15 | 7.48 PBM z-score against 500 random probes
62 | B4 | -1.37 PBM z-score against 500 random probes
63 | B20 | -0.49 PBM z-score against 500 random probes
